Assay results: patent CN113817050A

Molecular target: 抗原(Biacore 8K表面等离子共振实验，未指明)
Assay: SPR, Biacore 8K; antigen and format not given

B1: 抗SARS-CoV-2的单克隆抗体1H8 (antibody, V domains shown)
VH: EVQLVESGGGLVQPGGSLRLSCAASEITVSSNYMNWVRQAPGKGLEWVSVIYSGGTTYYADSVKGRFTISRDNSENTLYLQMNSLRAEDTAVYYCARDLMEVGGMDVWGQGTTVTVSS
VL: DIVMTQSPSSLSASVGDRVTITCRASQGVSNYLAWYQQKPGKVPKLLIYAASTLQSGVPSRFSGSRSGTDFTLTISSLQPEDVATYYCQNYNSAPFAFGPGTKVEIK
  Kd: 18.7 nM
  koff: 0.00138 s⁻¹
  kon: 73600 M⁻¹ s⁻¹
